# Patent US20240190999A1 (Molecular Partners, published 2024)
# B1: Multispecific binding protein B (MpB) (designed binder)
# chain: MRGSHHHHHHGSDLGKKLLEAARAGQDDEVRELLKAGADVNAKDYFSHTPLHLAARNGHLKIVEVLLKAGADVNAKDFAGKTPLHLAAADGHLEIVEVLLKAGADVNAQDIFGKTPADIAADAGHEDIAEVLQKAAGSPTPTPTTPTPTPTTPTPTPTGSDLGEKLLVAALYGQDDEVRELLKAGADVNAKDQWGLTPLHKAALQGHLEIVEVLLKAGADVNAKDERGHTPLHWAARFGHLEIVEVLLKAGADVNAQDQKGYTPADLAALWGHEDIAEVLQKAAGSPTPTPTTPTPTPTTPTPTPTGSDLGQKLLKAAQEGQDDEVRELLKAGADVNAKDLRGITPLHVAAWQGHLEIVEVLLKAGADVNAKDSKGETPLHLAAFRGHLEIVEVLLKAGADVNAQDQQGETPADLAALAGHVDIAEVLQKAAGSPTPTPTTPTPTPTTPTPTPTGSDLGQKLLKAAQEGQDDEVRELLKAGADVNAKDLRGITPLHVAAWQGHLEIVEVLLKAGADVNAKDSKGETPLHLAAFRGHLEIVEVLLKAGADVNAQDQQGETPADLAALAGHVDIAEVLQKAAGSPTPTPTTPTPTPTTPTPTPTGSDLGKKLLEAARAGQDDEVRELLKAGADVNAKDYFSHTPLHLAARNGHLKIVEVLLKAGADVNAKDFAGKTPLHLAAADGHLEIVEVLLKAGADVNAQDIFGKTPADIAADAGHEDIAEVLQKAA
# B2: His-MpA (His-tagged version of MpA) (designed binder)
# chain: GSDLGKKLLEAARAGQDDEVRELLKAGADVNAKDYFSHTPLHLAARNGHLKIVEVLLKAGADVNAKDFAGKTPLHLAAADGHLEIVEVLLKAGADVNAQDIFGKTPADIAADAGHEDIAEVLQKAAGSPTPTPTTPTPTPTTPTPTPTGSDLGKKLLEAARAGQDDEVRELLKAGADVNAKDVLGWTPLHLAAFEGHLEIVEVLLKAGADVNAKDKKGWTPLQLAARTGHLEIVEVLLKAGADVNAKDHIGATPLHLAAWQGHPEIVEVLLKAGADVNAQDKSGKTPADLAADAGHEDIAEVLQKAAGSPTPTPTTPTPTPTTPTPTPTGSDLGQKLLKAAQEGQDDEVRELLKAGADVNAKDLRGITPLHVAAWQGHLEIVEVLLKAGADVNAKDSKGETPLHLAAFRGHLEIVEVLLKAGADVNAQDQQGETPADLAALAGHVDIAEVLQKAAGSPTPTPTTPTPTPTTPTPTPTGSDLGQKLLKAAQEGQDDEVRELLKAGADVNAKDLRGITPLHVAAWQGHLEIVEVLLKAGADVNAKDSKGETPLHLAAFRGHLEIVEVLLKAGADVNAQDQQGETPADLAALAGHVDIAEVLQKAAGSPTPTPTTPTPTPTTPTPTPTGSDLGKKLLEAARAGQDDEVRELLKAGADVNAKDYFSHTPLHLAARNGHLKIVEVLLKAGADVNAKDFAGKTPLHLAAADGHLEIVEVLLKAGADVNAQDIFGKTPADIAADAGHEDIAEVLQKAA
# B3: bispecific construct #44 (designed binder)
# chain: MRGSHHHHHHGSDLGEKLLVAALYGQDDEVRILLAAGADVNAKDQWGLTPLHKAALQGHLEIVEVLLKAGADVNAKDERGHTPLHWAARFGHLEIVEVLLKAGADVNAQDQKGYTPADLAALWGHEDIAEVLQKAAGSPTPTPTTPTPTPTTPTPTPTGSDLGQKLLKAAQEGQDDEVRELLKAGADVNAKDLRGITPLHVAAWQGHLEIVEVLLKAGADVNAKDSKGETPLHLAAFRGHLEIVEVLLKAGADVNAQDQQGETPADLAALAGHVDIAEVLQKLN
# notes: also called FAP-4-1BB bispecific construct #44
# B4: bispecific construct #45 (designed binder)
# chain: MRGSHHHHHHGSDLGEKLLVAALYGQDDEVRILLAAGADVNAKDQWGLTPLHKAALQGHLEIVEVLLKAGADVNAKDERGHTPLHWAARFGHLEIVEVLLKAGADVNAQDQKGYTPADLAALWGHEDIAEVLQKAAGSPTPTPTTPTPTPTTPTPTPTGSDLGDKLLHAAYYGQDDEVRILLAAGADVNAKDTQGLTPLHLAAAIGHLEIVEVLLKAGADVNAKDAYGETPLHLVASRGHLEIVEVLLKAGADVNAQDYSGRTPADLAAEYGHEDIAEVLQKLN
# notes: 56 is used; also called FAP-4-1BB bispecific construct #45
# B5: bispecific construct #46 (designed binder)
# chain: MRGSHHHHHHGSDLGEKLLVAALYGQDDEVRILLAAGADVNAKDQWGLTPLHKAALQGHLEIVEVLLKAGADVNAKDERGHTPLHWAARFGHLEIVEVLLKAGADVNAQDQKGYTPADLAALWGHEDIAEVLQKAAGSPTPTPTTPTPTPTTPTPTPTGSDLGRKLLQAAQLGQDDEVRELLKAGADVNAKDSRGITPLHVAAWQGHLEIVEVLLKASADVNAKDHAGITPLHLAAFLGHLEIVEVLLKAGADVNAQDQEGRTPADLAALQGHEDIAKVLQKLN
# notes: 56 is used; also called FAP-4-1BB bispecific construct #46
# B6: bispecific construct #47 (designed binder)
# chain: MRGSHHHHHHGSDLGEKLLVAALYGQDDEVRILLAAGADVNAKDQWGLTPLHKAALQGHLEIVEVLLKAGADVNAKDERGHTPLHWAARFGHLEIVEVLLKAGADVNAQDQKGYTPADLAALWGHEDIAEVLQKAAGSPTPTPTTPTPTPTTPTPTPTGSDLGKKLLEAARAGQDDEVRELLKAGADVNAKDTYGETPLHLAAWKGHLEIVEVLLKAGADVNAKDSIGITPLHVAAHHGHLEIVEVLLKAGADVNAKDKWGRTPLHLAALLGHLEIAEVLLKAGADVNAQDKSGKTPADLAADAGHDDIAEVLQKLN
# notes: 56 is used; also called FAP-4-1BB bispecific construct #47
# B7: bispecific construct #48 (designed binder)
# chain: MRGSHHHHHHGSDLGEKLLVAALYGQDDEVRILLAAGADVNAKDQWGLTPLHKAALQGHLEIVEVLLKAGADVNAKDERGHTPLHWAARFGHLEIVEVLLKAGADVNAQDQKGYTPADLAALWGHEDIAEVLQKAAGSPTPTPTTPTPTPTTPTPTPTGSDLGKKLLEAARAGQDDEVRELLKAGADVNAKDQEHGSTPLHLAANYGHLEIVEVLLKAGADVNAKNWWGNTPLHLAAVYGHLEIVEVLLKAGADVNAKDNHGHTPLHLAAWYGHLEIVEVLLKAGADVNAQDKSGKTPADLAADAGHEDIAEVLQKAA
# notes: 56 is used; also called FAP-4-1BB bispecific construct #48
# B8: bispecific construct #49 (designed binder)
# chain: MRGSHHHHHHGSDLGEKLLVAALYGQDDEVRILLAAGADVNAKDQWGLTPLHKAALQGHLEIVEVLLKAGADVNAKDERGHTPLHWAARFGHLEIVEVLLKAGADVNAQDQKGYTPADLAALWGHEDIAEVLQKAAGSPTPTPTTPTPTPTTPTPTPTGSDLGKKLLVAANVGQDDEVRILLAAGADVNAKDYHGYTPLHHAATYGHLEIVEVLLKAGADVNAKDQTGLTPLHLAAAKGHLEIVEVLLKAGADVNAQDHHGYTPADLAAFVGHEDIAVVLQKLN
# notes: 56 is used; also called FAP-4-1BB bispecific construct #49
# Experiments:
# [1] = target: T1, human 4-1BB on primary human CD8 T cells (human, UniProt Q07011 24-255); test: cell-based or functional assay
# T1 sequence (Q07011 24-255 limits assumed): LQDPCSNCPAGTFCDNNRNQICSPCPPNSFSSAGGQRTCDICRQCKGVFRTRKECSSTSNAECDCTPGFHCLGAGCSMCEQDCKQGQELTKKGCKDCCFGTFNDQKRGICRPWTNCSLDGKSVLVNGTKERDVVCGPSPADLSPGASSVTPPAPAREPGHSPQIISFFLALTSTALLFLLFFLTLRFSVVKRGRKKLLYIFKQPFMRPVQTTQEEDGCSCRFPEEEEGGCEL
# [2] = target: T1, human 4-1BB on primary human CD8 T cells; test: cell-based or functional assay; remark: listed apart in the source
# [3] = target: T2, human fibroblast activation protein (hFAP) (human, UniProt Q12884 26-760, limits assumed); test: SPR (ProteOn XPR36), hFAP immobilised on GLC chip, construct as analyte
# T2 construct: Recombinant soluble protein; also called human FAP; rhFAP
# T2 sequence (Q12884 26-760 limits assumed): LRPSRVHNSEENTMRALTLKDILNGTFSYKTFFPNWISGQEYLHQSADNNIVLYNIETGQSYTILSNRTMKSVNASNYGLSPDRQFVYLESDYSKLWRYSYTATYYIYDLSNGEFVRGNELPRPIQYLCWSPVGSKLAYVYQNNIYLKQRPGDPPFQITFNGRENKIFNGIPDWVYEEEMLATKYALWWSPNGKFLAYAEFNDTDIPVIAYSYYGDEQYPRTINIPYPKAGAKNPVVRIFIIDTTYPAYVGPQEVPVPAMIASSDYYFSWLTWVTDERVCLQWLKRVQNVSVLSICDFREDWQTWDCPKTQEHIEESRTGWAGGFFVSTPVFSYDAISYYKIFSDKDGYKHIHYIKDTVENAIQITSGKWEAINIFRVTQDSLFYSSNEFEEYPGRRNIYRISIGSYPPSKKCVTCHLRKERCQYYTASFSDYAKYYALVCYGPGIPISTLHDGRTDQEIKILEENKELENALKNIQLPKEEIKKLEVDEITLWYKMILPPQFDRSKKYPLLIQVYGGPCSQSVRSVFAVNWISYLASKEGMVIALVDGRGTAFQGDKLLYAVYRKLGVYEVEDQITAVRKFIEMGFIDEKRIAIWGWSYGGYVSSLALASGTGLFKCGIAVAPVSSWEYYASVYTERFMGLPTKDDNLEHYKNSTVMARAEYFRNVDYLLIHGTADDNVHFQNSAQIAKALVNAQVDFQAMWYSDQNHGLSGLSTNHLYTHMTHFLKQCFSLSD
# Experimental: (§1) Assay set-up: Briefly, SPR measurements were performed using a ProteOn XPR36 instrument (BioRad) as described above. Biotinylated human and cynomolgus 4-1BB and human FAP were immobilized either directly or indirectly via NeutrAvidin (˜6000 RU pre-coated) on a GLC chip to reach 600 RU, 700 RU and 2000 RU, respectively. The interaction of FAP-4-1BB bispecific constructs to the coated targets was measured by injecting the bispecific constructs in a serial dilution of 50, 16.7, 5.6, 1.9 and 0.6 nM with an association of 120 s and dissociation of 1800 s using a constant flow rate of 30 μl/min. Targets were regenerated between the individual measurements using 10 mM glycine pH 2 and 124 mM H₃PO₄. The signals were double referenced against the running buffer (PBST) treated control lane.
# [4] = target: T2, human fibroblast activation protein …; test: SPR (ProteOn XPR36); end of the group's range, tied to #44 by Table 15
# Experimental: as §1
# [5] = target: T3, human 4-1BB on transfected HT1080 NF-kB-luciferase reporter cells (human, UniProt Q07011 24-255); test: cell-based or functional assay
# T3 sequence (Q07011 24-255 limits assumed): as the sequence (Q07011 24-255 limits assumed) above
# [6] = target: T3, human 4-1BB on transfected HT1080 …; test: cell-based or functional assay; remark: listed apart in the source
# [7] = target: T4, biotinylated human 4-1BB (bio.h4-1BB) (human, UniProt Q07011 24-186, limits assumed, biotinylated (site not stated)); test: SPR (ProteOn XPR36), biotinylated h4-1BB immobilised on GLC chip, construct as analyte
# T4 construct: also called CD137
# T4 sequence (Q07011 24-186 limits assumed): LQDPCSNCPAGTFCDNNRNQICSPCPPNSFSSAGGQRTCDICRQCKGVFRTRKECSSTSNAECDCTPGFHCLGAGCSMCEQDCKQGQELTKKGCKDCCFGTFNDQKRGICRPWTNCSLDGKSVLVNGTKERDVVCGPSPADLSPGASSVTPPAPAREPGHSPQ
# Experimental: as §1
# [8] = target: T3, human 4-1BB on transfected HT1080 …; test: cell-based or functional assay; remark: listed apart in the source
# [9] = target: T4, biotinylated human 4-1BB (bio.h4-1BB); test: SPR (ProteOn XPR36); end of the group's range, tied to #45 by Table 15
# Experimental: as §1
# [10] = target: T2, human fibroblast activation protein …; test: SPR (ProteOn XPR36); end of the group's range, tied to #47 by Table 15
# Experimental: as §1
# [11] = target: T4, biotinylated human 4-1BB (bio.h4-1BB); test: SPR (ProteOn XPR36); end of the group's range, tied to #48 by Table 15
# Experimental: as §1
Binder,"EC50, IFNγ secretion of human CD8 T cells (plate-coated hFAP) [1]","EC50, IFNγ production by primary human CD8 T cells (anti-CD3 plus plate-coated hFAP) [2]",Kd [3],Kd [4],"EC50, 4-1BB activation in HT1080 reporter cells in presence of FAP-expressing CHO cells (Population 1) [5]","EC50, 4-1BB activation in HT1080 reporter cells in presence of FAP-beads [6]",Kd [7],"EC50, 4-1BB activation in HT1080 reporter cells in presence of FAP-expressing CHO cells (Population 2) [8]",Kd [9],Kd [10],Kd [11]
B1,1 to 2 nM,1.54 nM,–,–,–,–,–,–,–,–,–
B2,1 to 3 nM,2.37 nM,–,–,–,–,–,–,–,–,–
B3,–,–,0.36 nM,0.1 to 0.4 nM,0.47 nM,4.59 nM,1.45 nM,0.36 nM,–,–,–
B4,–,–,0.33 nM,–,0.67 nM,5.15 nM,1.47 nM,0.39 nM,0.4 to 1.5 nM,–,–
B5,–,–,0.27 nM,–,0.73 nM,5.85 nM,1.15 nM,0.37 nM,–,–,–
B6,–,–,0.07 nM,–,0.36 nM,6.19 nM,0.77 nM,0.18 nM,–,0.1 to 0.4 nM,–
B7,–,–,0.17 nM,–,0.28 nM,3.71 nM,0.44 nM,0.16 nM,–,–,0.4 to 1.5 nM
B8,–,–,0.17 nM,–,0.91 nM,6.52 nM,0.86 nM,1.04 nM,–,–,–
